Reference: the Human Domainome abundance scans (Beltran et al. 2025)

B1: Ankyrin-2, residues 3571 to 3650; numbered along this chain, Q01484 (parent)
chain: ERLAYIADHLGFSWTELARELDFTEEQIHQIRIENPNSLQDQSHALLKYWLERDGKHATDTNLVECLTKINRMDIVHLME

Variants of: B1
Assay: abundance fitness (aPCA) (normalised: wild type 0, dead -1); higher = more abundant; growth selection in yeast, the domain comes from the species named
Settings: Homo sapiens

Abundance fitness of substitutions, site by site:
H57: G -0.019, F -0.107, S 0.06, P 0.009, E 0.101, C -0.062, V 0, M 0.004, K 0.056, R -0.052, N -0.002, W -0.065, L -0.093, D -0.061
D41: G 0.006, P -0.243, L -0.038, S -0.005, W -0.2, T -0.013, E -0.077, K -0.034, I 0.004, M -0.019, Y -0.213, C -0.109, Q -0.024, V -0.065, N -0.02, R -0.058, F -0.168, A -0.01
G55: A -0.013, P -0.035, H -0.041, D 0.041, Y -0.052, W -0.112, E -0.033, T -0.026, S -0.045, M -0.061, L -0.017, V -0.038, N 0.028, C -0.114, Q 0.008, F -0.143, K -0.094, I -0.089
R53: S 0.005, G -0.117, N -0.144, M -0.109, C -0.086, T -0.029, V -0.067, H -0.092, D -0.413, L -0.236, P -0.216, A -0.052, K -0.029, W 0.002, Y -0.166
K56: I -0.084, P -0.05, A -0.02, H 0.022, V -0.057, C 0.067, E 0.149, W -0.126, S -0.019, N -0.071, R -0.037, T -0.01, Q -0.067, L -0.043, D 0.052, Y -0.13, F -0.023
H44: T -0.269, Q -0.062, W -0.152, Y -0.21, S 0.016, D -0.935, L -0.008, N 0.051, G -0.099, P -0.992, A 0.028, R -0.226, V 0.085
L46: C 0.184, G -0.574, A 0.143, W 0.141, T -0.127, V -0.075, P -0.885, Y -0.336
S38: R -0.096, E -0.092, T -0.039, M -0.059, W -0.358, Y -0.474, I -0.396, V -0.092, F -0.155, Q -0.103, L -0.086, D -0.038, P -0.832, H -0.14, N -0.065
W50: R -0.205, E -0.316, Y -0.14, A 0.003, S -0.081, Q 0.003, L 0.012, H -0.132, K 0.063, P -0.664, M 0.007, T -0.05, V -0.017, C -0.053, D -0.598, F -0.086, G -0.28, N -0.041
Q40: C -0.16, G -0.146, W -0.065, R -0.07, T -0.033, A -0.104, D 0.117, I -0.124, L -0.171, P -0.045, E 0.051, S -0.069
T59: C -0.095, D -0.103, A -0.035
E52: K 0.036, I -0.039, L 0.012, T 0.006, R -0.045, C -0.132, D -0.178, A 0.037, H -0.09, P -0.378, W -0.045, G -0.146, V 0.006, S -0.057, Q 0.088, M -0.083
